# Test results from article PMC6596341.
# B1: S100B (natural protein)
# chain: MSELEKAMVALIDVFHQYSGREGDKHKLKKSELKELINNELSHFLEEIKEQEVVDKVMETLDNDGDGECDFQEFMAFVAMVTTACHEFFEHE
# Target: Aβ42 (human) (UniProt P05067)
# Sequence (P05067 672-713): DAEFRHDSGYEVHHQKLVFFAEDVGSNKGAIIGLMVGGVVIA
binder,measurement,value
B1,"reaction half time (t1/2) of ThT-monitored fibril formation of 5 μM monomeric Aβ42 in the presence of 15 μM S100B, 50 mM Hepes pH 7.4, 1.1 mM CaCl2, 37°C, quiescent (Aβ42 alone t1/2 = 0.8 h)",2.2 h
